This assay deals with T1, endogenous human Ataxin-2 (human, UniProt Q99700 1-1313, limits assumed).
T1 construct: Endogenous protein in HEK293T lysate, detected by immunoblot with α-Ataxin-2 (BD); also called ATXN2
The experiment in a line: co-immunoprecipitation from HEK293T lysate (α-GFP IP, α-Ataxin-2 blot). The text has this: CFP-Pbp1 and TDP-43-YFP show accumulations in yeast that frequently co-localize (arrows). b) Co-immunoprecipitation assays in yeast. Yeast cells co-transformed with untagged TDP-43 and either CFP-Pbp1 or CFP alone were lysed and subjected to immunoprecipitation with an α-GFP antibody (also detects CFP), then subjected to immunoblotting with a-TDP43. […] HEK293T cells were transfected with expression constructs encoding YFP, TDP-43-YFP, TDP-43ΔNLS-YFP (NLS mutant that localizes the protein to the cytoplasm), TDP-43_{ΔNLS,5F}_{_{→}}L-YFP (NLS mutant coupled with RNA-binding mutant, (5 point mutations in the RRM domains that abolish RNA-binding)), or TDP-435F_{_{→}}L-YFP (RNA-binding mutant). Protein was immunoprecipitated with a-GFP antibody (detects YFP), and then subjected to immunoblotting with a-Ataxin-2 to detect endogenous Ataxin-2. […] The interaction between Ataxin-2 and TDP-43 seen normally (left lanes) was abolished upon RNase treatment (right lanes). e) HEK293T cells transfected with YFP-tagged WT and mutant TDP-43 constructs then immunostained for endogenous Ataxin-2. Normally, Ataxin-2 is localized to the cytoplasm forming occasional cytoplasmic accumulations. TDP-43 localized to the nucleus in a diffuse pattern. […]

T1 sequence (Q99700 whole entry): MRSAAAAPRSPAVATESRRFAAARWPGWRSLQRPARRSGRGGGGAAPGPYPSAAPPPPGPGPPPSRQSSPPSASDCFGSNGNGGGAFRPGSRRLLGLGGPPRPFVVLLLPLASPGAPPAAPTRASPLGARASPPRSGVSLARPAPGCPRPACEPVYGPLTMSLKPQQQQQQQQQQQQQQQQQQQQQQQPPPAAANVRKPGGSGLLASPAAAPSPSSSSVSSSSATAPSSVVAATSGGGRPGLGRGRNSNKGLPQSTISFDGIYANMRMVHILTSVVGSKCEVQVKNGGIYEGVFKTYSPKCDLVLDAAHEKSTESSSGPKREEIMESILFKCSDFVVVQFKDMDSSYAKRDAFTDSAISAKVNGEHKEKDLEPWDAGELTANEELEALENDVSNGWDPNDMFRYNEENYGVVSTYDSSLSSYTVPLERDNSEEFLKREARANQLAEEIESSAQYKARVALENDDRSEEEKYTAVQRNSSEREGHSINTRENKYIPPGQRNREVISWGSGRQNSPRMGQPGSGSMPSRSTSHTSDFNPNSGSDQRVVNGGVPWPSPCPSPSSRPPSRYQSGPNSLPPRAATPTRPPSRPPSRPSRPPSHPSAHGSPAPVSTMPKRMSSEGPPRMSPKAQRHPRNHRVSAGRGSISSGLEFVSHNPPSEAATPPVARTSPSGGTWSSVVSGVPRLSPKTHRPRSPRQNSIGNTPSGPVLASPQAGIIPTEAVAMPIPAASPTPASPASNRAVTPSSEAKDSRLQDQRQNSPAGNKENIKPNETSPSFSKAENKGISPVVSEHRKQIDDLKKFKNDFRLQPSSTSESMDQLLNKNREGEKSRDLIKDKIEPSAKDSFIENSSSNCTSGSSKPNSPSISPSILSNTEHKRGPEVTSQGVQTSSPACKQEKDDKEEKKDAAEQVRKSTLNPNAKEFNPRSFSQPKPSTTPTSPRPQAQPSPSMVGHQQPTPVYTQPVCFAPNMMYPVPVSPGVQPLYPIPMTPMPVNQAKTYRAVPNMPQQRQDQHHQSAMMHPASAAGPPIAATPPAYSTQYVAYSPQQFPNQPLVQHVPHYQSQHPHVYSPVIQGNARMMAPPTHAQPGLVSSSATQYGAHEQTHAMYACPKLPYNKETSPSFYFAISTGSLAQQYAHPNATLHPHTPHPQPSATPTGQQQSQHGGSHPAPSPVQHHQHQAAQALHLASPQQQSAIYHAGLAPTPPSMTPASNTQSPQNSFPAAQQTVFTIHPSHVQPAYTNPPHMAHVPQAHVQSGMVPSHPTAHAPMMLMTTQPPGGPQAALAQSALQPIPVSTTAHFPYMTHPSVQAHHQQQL

B1: TDP-43ΔNLS,5F→L-YFP (other, human, UniProt Q13148 1-414, looked up)
chain: MSEYIRVTEDENDEPIEIPSEDDGTVLLSTVTAQFPGACGLRYRNPVSQCMRGVRLVEGILHAPDAGWGNLVYVVNYPKDNAAAMDETDASSAVKVKRAVQKTSDLIVLGLPWKTTEQDLKEYFSTFGEVLMVQVKKDLKTGHSKGLGLVRFTEYETQVKVMSQRHMIDGRWCDCKLPNSKQSQDEPLRSRKVLVGRCTEDMTEDELREFFSQYGDVMDVFIPKPFRALALVTFADDQIAQSLCGEDLIIKGISVHISNAEPKHNSNRQLERSGRFGGNPGGFGNQGGFGNSRGGGAGLGNNQGSNMGGGMNFGAFSINPAMMAAAQAALQSSWGMMGMLASQQNQSGPSGNNQNQGNMQREPNQAFGSGNNSYSGSNSGAAIGWGSASNAGSGSGFNGGFGSSMDSKSSGWGM
notes: also called ΔNLS-TDP-43-(5F→L)-YFP; not shown: C-terminal YFP tag
As to B1, the binding result was “no binding”.

The values are drawn from US20110142789A1 (University of Pennsylvania, published 2011).
